Publication PMC9050506 (RSC Advances, 2020)

Experiments:
[1] = tested on: dimannosylated peptide P2 (DM); type: binding
[2] = binding partner not given; cited from earlier work

In the case of “CVN2L0-V2: CVN2L0 variant with one C58E–C73R substitution, three disulfide bonds”, the “Rmax, binding to DM” value ([1]; SPR sensorgrams Fig. 3E-F) is reported as 132 RU.

B1: wild-type CV-N: 11 kDa lectin originating from Nostoc ellipsosporum (protein, UniProt P81180 1-101, looked up)
Cyanovirin-N: LGKFSQTCYNSAIQGSVLTSTCERTNGGYNTSSIDLNSVIENVDGSLKWQPSNFIETCRNTQLAGSSELAAECKTRAQQFVSTKINLDDHIANIDGTLKYE
For B1, the Kd [2] is given as 5.7 nM.

B2: CVN2L0-V4: CVN2L0 variant with Cys–Cys mutagenesis to Trp–Met and Glu–Arg, two disulfide bonds (protein)
chain: LGKFSQTCYNSAIQGSVLTSTCERTNGGYNTSSIDLNSVIENVDGSLKWQPSNFIETWRNTQLAGSSELAAEMKTRAQQFVSTKINLDDHIANIDGTLKYELGKFSQTCYNSAIQGSVLTSTCERTNGGYNTSSIDLNSVIENVDGSLKWQPSNFIETERNTQLAGSSELAAERKTRAQQFVSTKINLDDHIANIDGTLKYE
modifications: left off: His6, N-terminal, state not stated
In the case of B2, the “binding to DM (in words)” value ([1]; SPR, listed as V4) is reported as “showed binding”.
